# Assay results published in patent publication US20260061032A1 (GI INNOVATION, published 2026).
# T1: hIL-2Rα (human, UniProt P01589 22-213)
# T1 construct: also called hIL-2Ra; IL-2 receptor alpha chain
# T1 sequence (looked up): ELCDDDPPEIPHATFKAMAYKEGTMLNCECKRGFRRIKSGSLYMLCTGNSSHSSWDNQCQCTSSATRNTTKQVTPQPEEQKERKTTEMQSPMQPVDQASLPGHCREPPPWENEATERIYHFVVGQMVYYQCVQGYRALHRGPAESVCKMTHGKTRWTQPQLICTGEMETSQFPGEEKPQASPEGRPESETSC
# B1: GI-108A1 (AHP04167) (Anti-CD73 sdAb-hIgG4 Fc-hIL2v3 fusion protein dimer) (Fc fusion)
# chain: EVQLVESGGGLVQAGGSLRLSCVVSGRTFSNYHMGWFRQAPGKEREFVAVIGRSGGPTYYADSVKGRFTISRDNAKNTVYLQMNSLKPEDTAVYYCAGDWRNSDSPSKLKPVYDYWGQGTQVTVSSGGGGSAESKYGPPCPPCPAPEAAGGPSVFLFPPKPKDQLMISRTPEVTCVVVDVSQEDPEVQFNWYVDGVEVHNAKTKPREEQFNSTYRVVSVLTVLHQDWLNGKEYKCKVSNKGLPSSIEKTISKAKGQPREPQVYTLPPSQEEMTKNQVSLTCLVKGFYPSDIAVEWESNGQPENNYKTTPPVLDSDGSFFLYSRLTVDKSRWQEGNVFSCSVLHEALHNHYTQKSLSLSLGGGGGSGGGGSGGGGSAPTSSSTKKTQLQLEHLLLDLQMILNGINNYKNPKLTAMLTAKFYMPKKATELKHLQCLERELKPLEEVLNLAQSKNFHLRPRDLISNINVIVLELKGSETTFMCEYADETATIVEFLNRWITFCQSIISTLT
# notes: Homodimer through hinge cysteines
# B2: GI-108B1 (Anti-CD73 Ab-hIgG4 Fc-hIL2v3 fusion protein dimer) (antibody)
# heavy: QVQLVQSGAEVKKPGSSVKVSCKFSGGSFTSYSFSWVRQAPGQGLEWMGRIIPVLTTTDYAQKFRDRVTITADESTSTAYMELSGLRSEDTAVYYCASGLKKNWYFDLWGRGALITVSSASTKGPSVFPLAPCSRSTSESTAALGCLVKDYFPEPVTVSWNSGALTSGVHTFPAVLQSSGLYSLSSVVTVPSSSLGTKTYTCNVDHKPSNTKVDKRVESKYGPPCPPCPAPEAAGGPSVFLFPPKPKDQLMISRTPEVTCVVVDVSQEDPEVQFNWYVDGVEVHNAKTKPREEQFNSTYRVVSVLTVLHQDWLNGKEYKCKVSNKGLPSSIEKTISKAKGQPREPQVYTLPPSQEEMTKNQVSLTCLVKGFYPSDIAVEWESNGQPENNYKTTPPVLDSDGSFFLYSRLTVDKSRWQEGNVFSCSVLHEALHNHYTQKSLSLSLGGGGGSGGGGSAPTSSSTKKTQLQLEHLLLDLQMILNGINNYKNPKLTAMLTAKFYMPKKATELKHLQCLERELKPLEEVLNLAQSKNFHLRPRDLISNINVIVLELKGSETTFMCEYADETATIVEFLNRWITFCQSIISTLT
# light: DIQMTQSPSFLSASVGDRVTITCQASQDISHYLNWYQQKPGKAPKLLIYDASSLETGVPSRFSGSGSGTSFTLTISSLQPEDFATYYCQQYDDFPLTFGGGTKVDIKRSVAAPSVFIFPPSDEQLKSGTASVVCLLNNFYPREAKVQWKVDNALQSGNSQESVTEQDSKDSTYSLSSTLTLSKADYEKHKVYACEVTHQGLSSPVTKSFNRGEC
# notes: IgG4 anti-CD73 antibody with the IL-2 variant fused to the C-terminus of each heavy chain; expressed in CHO cells, purified as a dimer
# B3: GI-108A1 (AHF10240) (Anti-CD73 sdAb-hIgG4 Fc-hIL2v3 fusion protein dimer) (Fc fusion)
# chain: EVQLVESGGGVVQTGGSLRLSCAASGRTFTHLAMGWFRQAPGKEREFVAAISNSGAGTQFADSVKGRFTISRDNAKNTVYLQMNSLKPEDTAVYYCAADWGTRDSPSKLNAVYDYWGRGTQVTVSSGGGGSAESKYGPPCPPCPAPEAAGGPSVFLFPPKPKDQLMISRTPEVTCVVVDVSQEDPEVQFNWYVDGVEVHNAKTKPREEQFNSTYRVVSVLTVLHQDWLNGKEYKCKVSNKGLPSSIEKTISKAKGQPREPQVYTLPPSQEEMTKNQVSLTCLVKGFYPSDIAVEWESNGQPENNYKTTPPVLDSDGSFFLYSRLTVDKSRWQEGNVFSCSVLHEALHNHYTQKSLSLSLGGGGGSGGGGSGGGGSAPTSSSTKKTQLQLEHLLLDLQMILNGINNYKNPKLTAMLTAKFYMPKKATELKHLQCLERELKPLEEVLNLAQSKNFHLRPRDLISNINVIVLELKGSETTFMCEYADETATIVEFLNRWITFCQSIISTLT
# notes: as for B1
# Molecular target: T1, hIL-2Rα
# Experiment: SPR, Biacore T200; hIL-2Rα on CM5 chip through His capture kit, binder as analyte
# Procedure: To quantitatively analyze the binding affinities to CD73 and IL-2 receptors of […] and GI-108B1, in which the anti-CD73 antibody that specifically binds to CD73 was linked to the IL-2 variant, and Aldesleukin (trade name: PROLEUKIN®, Novartis), the binding affinities were measured using SPR (surface plasmon resonance). Using a BIACORE™ T200 instrument (Cytiva), the binding affinities of GI-108A1 (AHF10240), GI-108A1 (AHP04167) and GI-108B1 to hCD73, cyCD73, mCD73, hIL-2Rα, hIL-2Rβ, and hIL-2Rβγ were analyzed. Oleclumab (Astrazeneca), produced on order from Ybiologics, Inc., was used as a control.
# To analyze the binding affinity to hIL-2Ra, hIL-2Ra was […] immobilized on Sensor Chip CM5 using a His capture kit (Cytiva, USA). Each of GI-108A1 (AHF10240), GI-108A1 (AHP04167), GI-108B1 and PROLEUKIN®, diluted in HBS-EP+ buffer, was then applied for 1 minute, followed by analysis of association and dissociation. In addition, the binding affinities to hIL-2RB and hIL-2Rβγ were measured by a three-step analysis method including treating Sensor Chip SA (Cytiva, USA) with biotinylated CD73, and then binding each of GI-108A1 (AHF10240), GI-108A1 (AHP04167), GI-108B1 and PROLEUKIN® to CD73, followed by treatment with each of hIL-2RB and hIL-2Rβγ diluted in HBS-P+ buffer (Cytiva, USA). For hIL-2RB, association was performed for 1 minute and dissociation for 1 minute, and for hIL-2Rβγ, association was performed for 5 minutes and dissociation for 2 hours at each concentration, in a single cycle kinetics analysis. Each sensorgram was normalized and subtracted compared to a blank cell to calculate affinity.
row,Binder,binding result
1,B1,no binding
2,B2,no binding
3,B3,no binding
